Reference: CN113461812A (BEIJING LUFEI BIOTECHNOLOGY CO LTD, dated 2021)

Experiments:
新型冠状病毒RBD蛋白 (野生型) = molecular target: T1, 新型冠状病毒RBD蛋白 (野生型) (SARS-CoV-2, UniProt P0DTC2 319-541); assay: SPR (Biacore), 1:1 binding fit
T1 construct: domain: RBD; also called WT; 新冠病毒RBD蛋白野生型

新型冠状病毒(假病毒) S蛋白 = 新型冠状病毒(假病毒) S蛋白 (SARS-CoV-2, UniProt P0DTC2 14-1273); assay: cell-based or functional assay

B1: 人源化新冠病毒中和性抗体nCoV-00D (antibody, V domains shown)
VH: QVQLQQSGAELVKPGASVKLSCKTSGYTFTRYYIYWVKQRPGQGLEWIGEINPNNGGTNFNEKFKSKATLTVDKSSNTAYMQLSSLTSEDSAVYYCTIFITTVIARDYWGQGTLVTVSA
VL: DIVLTQSPASLAVSLGQRATISCRASESVEYSGTTLMQWFQQKPGQPPKLLIYAASNVESGVPARFSGSGSGTDFSLNIHPVEEDDVAMYFCHQSREVPWTFGGGTKLEIKR
notes: also called nCoV-00D抗体
Kd (新型冠状病毒RBD蛋白 (野生型)): 0.532 nM | koff (新型冠状病毒RBD蛋白 (野生型)): 0.000133 s⁻¹ | kon (新型冠状病毒RBD蛋白 (野生型)): 251000 M⁻¹ s⁻¹ | IC50, 假病毒中和试验 (Huh7细胞, 荧光素酶值) (新型冠状病毒(假病毒) S蛋白): ~9 ng/mL
